The values below come from publication PMC8962522, “Direct interaction of TrkA/CD44v3 is essential for NGF-promoted aggressiveness of breast cancer cells” (Journal of Experimental & Clinical Cancer Research : CR, 2022).

The target in the assay is T1, TrkA-His tagged extracellular domain protein (Ala 34-Gly423) (UniProt P04629 34-423, RED-Tris-NTA dye on the His tag (Monolith His-Tag Labeling Kit)).
T1 construct: TrkA (tropomyosin kinase A) extracellular domain, Ala34-Gly423; The TrkA used for nanoDSF is not described; source: bought: R&D Systems (9966-TK-050)
T1 sequence (P04629 34-423): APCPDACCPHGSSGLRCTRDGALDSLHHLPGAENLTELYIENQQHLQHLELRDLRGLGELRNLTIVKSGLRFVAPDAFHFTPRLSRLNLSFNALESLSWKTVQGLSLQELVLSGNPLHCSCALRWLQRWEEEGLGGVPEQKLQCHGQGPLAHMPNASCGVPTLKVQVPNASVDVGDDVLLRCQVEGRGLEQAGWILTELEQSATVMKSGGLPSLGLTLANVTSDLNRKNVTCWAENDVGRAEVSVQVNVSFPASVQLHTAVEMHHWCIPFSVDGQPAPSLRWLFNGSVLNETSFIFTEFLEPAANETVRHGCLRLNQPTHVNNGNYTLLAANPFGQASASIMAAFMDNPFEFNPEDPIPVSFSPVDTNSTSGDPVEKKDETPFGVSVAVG
Description: MST; binding check: peptides and TrkA-His labelled with RED-Tris-NTA; PBS-T; high MST power, 100% LED. The note with it: both partners purified.

B1: CD44v3 mimetic peptide 3 (peptide)
peptide: RDRHLSFSGSG
notes: zone 3 of CD44 variant exon v3; not glycosylated; numbers count on: exon v3; also called P3; source: synthetic peptide
Consider B1, for which the binding result is listed as “binds”.

B2: CD44v3 mimetic peptide 4 (peptide)
peptide: IDDDEDFISST
notes: zone 4, the C-terminal region of CD44 variant exon v3; numbers count on: exon v3 (D34, F38 as printed); also called P4; CD44v3 C-terminal-mimicking peptide; source: synthetic peptide
On to B2, for which the binding result is recorded as “binds”.
